Data taken from US20040156842A1 (ZymoGenetics, published 2004).
Like-named read-outs stand apart in the source and are kept apart here.

Key:
[1] = target: GPCR73a receptor (Homo sapiens (Human)) (UniProt Q8TCW9); test: cell-based or functional assay
[2] = target: GPCR73b receptor (Homo sapiens (Human)) (UniProt Q8NFJ6); test: cell-based or functional assay
[3] = target: GPCR73b receptor (Homo sapiens (Human)) (UniProt Q8NFJ6); test: cell-based or functional assay; remark: listed apart in the source
[4] = target: GPCR73a receptor (Homo sapiens (Human)) (UniProt Q8TCW9); test: cell-based or functional assay; remark: listed apart in the source
GPCR73a receptor [5] = target: T1, GPCR73a receptor (Homo sapiens (Human), UniProt Q8TCW9 1-393); test: cell-based or functional assay
GPCR73b receptor [6] = target: T2, GPCR73b receptor (Homo sapiens (Human), UniProt Q8NFJ6 1-384); test: cell-based or functional assay
GPCR73b receptor [7] = target: T2, GPCR73b receptor; test: cell-based or functional assay; remark: listed apart in the source
GPCR73a receptor [8] = target: T1, GPCR73a receptor; test: cell-based or functional assay; remark: listed apart in the source
[9] = target: Zven1 receptor on Wky12-22 cells (rat); test: saturation binding of I125-radiolabeled Zven1 to Wky12-22 cell monolayers at 4 C, two-site nonlinear regression; low affinity site
[10] = target: Zven1 receptor on Wky12-22 cells (rat); test: cell-based or functional assay
[11] = target: Zven1 receptor on Wky12-22 cells (rat); test: saturation binding of I125-radiolabeled Zven1 to Wky12-22 cell monolayers at 4 C, two-site nonlinear regression; high affinity site

Chain of GPCR73a receptor (Homo sapiens (Human)) (Q8TCW9 whole entry): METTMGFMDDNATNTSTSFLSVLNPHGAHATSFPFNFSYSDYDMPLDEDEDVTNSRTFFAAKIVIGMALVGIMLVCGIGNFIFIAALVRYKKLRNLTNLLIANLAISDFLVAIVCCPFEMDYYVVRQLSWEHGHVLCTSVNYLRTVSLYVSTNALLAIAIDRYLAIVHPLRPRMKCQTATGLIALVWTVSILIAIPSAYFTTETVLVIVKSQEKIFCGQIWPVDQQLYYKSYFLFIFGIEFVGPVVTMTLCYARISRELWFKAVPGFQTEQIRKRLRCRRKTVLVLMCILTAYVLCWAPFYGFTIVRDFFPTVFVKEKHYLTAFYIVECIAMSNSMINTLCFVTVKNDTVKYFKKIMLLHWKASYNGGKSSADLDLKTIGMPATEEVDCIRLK
T1 sequence (Q8TCW9 whole entry): as above
T2 sequence (Q8NFJ6 whole entry): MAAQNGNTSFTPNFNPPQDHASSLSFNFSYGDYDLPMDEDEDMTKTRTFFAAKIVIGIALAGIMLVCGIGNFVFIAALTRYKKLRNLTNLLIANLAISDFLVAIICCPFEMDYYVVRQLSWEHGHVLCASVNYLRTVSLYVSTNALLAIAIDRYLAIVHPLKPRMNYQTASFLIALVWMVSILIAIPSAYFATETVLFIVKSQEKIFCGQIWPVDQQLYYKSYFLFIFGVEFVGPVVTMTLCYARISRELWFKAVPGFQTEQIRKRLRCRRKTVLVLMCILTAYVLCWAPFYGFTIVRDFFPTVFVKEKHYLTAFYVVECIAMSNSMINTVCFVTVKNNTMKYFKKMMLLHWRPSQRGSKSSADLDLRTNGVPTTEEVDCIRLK
Chain of GPCR73b receptor (Homo sapiens (Human)) (Q8NFJ6 whole entry): as above

B1: Zven2 ("endocrine-gland-derived vascular endothelial growth factor") protein purchased from Peprotech, Inc. (ligand)
chain: AVITGACERDVQCGAGTCCAISLWLRGLRMCTPLGREGEECHPGSHKVPFFRKRKHHTCPCLPNLLCSRFPDGRYRCSMDLKNINF
SRE luciferase fold-induction at 1 ng/ml (fold-induction) [1]: 0.95 | SRE luciferase fold-induction at 3.2 ng/ml (fold-induction) [1]: 1.3 | SRE luciferase fold-induction at 10 ng/ml (fold-induction) [1]: 2.6 | SRE luciferase fold-induction at 32 ng/ml (fold-induction) [1]: 7.2 | SRE luciferase fold-induction at 320 ng/ml (fold-induction) [1]: 20.5 | SRE luciferase fold-induction at 1000 ng/ml (fold-induction) [1]: 15 | SRE luciferase fold-induction at 3.2 ng/ml (fold-induction) [2]: 1.4 | SRE luciferase fold-induction at 32 ng/ml (fold-induction) [2]: 2.7 | SRE luciferase fold-induction at 100 ng/ml (fold-induction) [2]: 4.1 | SRE luciferase fold-induction at 320 ng/ml (fold-induction) [2]: 5.8 | SRE luciferase fold-induction at 1000 ng/ml (fold-induction) [2]: 6.1 | SRE luciferase fold-induction at 1 ng/ml (fold-induction) [3]: 1.1 | SRE luciferase fold-induction at 3.2 ng/ml (fold-induction) [3]: 1.3 | SRE luciferase fold-induction at 10 ng/ml (fold-induction) [3]: 1.8 | SRE luciferase fold-induction at 32 ng/ml (fold-induction) [3]: 2.8 | SRE luciferase fold-induction at 100 ng/ml (fold-induction) [3]: 5.6 | SRE luciferase fold-induction at 320 ng/ml (fold-induction) [3]: 8.3 | SRE luciferase fold-induction at 1000 ng/ml (fold-induction) [3]: 8.4 | SRE luciferase fold-induction at 1 ng/ml (fold-induction) [4]: 1.2 | SRE luciferase fold-induction at 3.2 ng/ml (fold-induction) [4]: 1.6 | SRE luciferase fold-induction at 10 ng/ml (fold-induction) [4]: 2.5 | SRE luciferase fold-induction at 32 ng/ml (fold-induction) [4]: 5.8 | SRE luciferase fold-induction at 100 ng/ml (fold-induction) [4]: 11.4 | SRE luciferase fold-induction at 320 ng/ml (fold-induction) [4]: 24.4 | SRE luciferase fold-induction at 1000 ng/ml (fold-induction) [4]: 20

B2: Zven1 (E. coli produced) (ligand)
chain: AVITGACDKDSQCGGGMCCAVSIWVKSIRICTPMGKLGDSCHPLTRKVPFFGRRMHHTCPCLPGLACLRTSFNRFICLAQK
SRE luciferase fold-induction at 1 ng/ml (GPCR73a receptor [5]): 4.1 fold-induction | SRE luciferase fold-induction at 3.2 ng/ml (GPCR73a receptor [5]): 7.6 fold-induction | SRE luciferase fold-induction at 10 ng/ml (GPCR73a receptor [5]): 10.2 fold-induction | SRE luciferase fold-induction at 32 ng/ml (GPCR73a receptor [5]): 14.1 fold-induction | SRE luciferase fold-induction at 100 ng/ml (GPCR73a receptor [5]): 17.6 fold-induction | SRE luciferase fold-induction at 320 ng/ml (GPCR73a receptor [5]): 22 fold-induction | SRE luciferase fold-induction at 1000 ng/ml (GPCR73a receptor [5]): 13.9 fold-induction | SRE luciferase fold-induction at 1 ng/ml (GPCR73b receptor [6]): 0.7 fold-induction | SRE luciferase fold-induction at 3.2 ng/ml (GPCR73b receptor [6]): 1.3 fold-induction | SRE luciferase fold-induction at 10 ng/ml (GPCR73b receptor [6]): 1.9 fold-induction | SRE luciferase fold-induction at 32 ng/ml (GPCR73b receptor [6]): 3 fold-induction | SRE luciferase fold-induction at 100 ng/ml (GPCR73b receptor [6]): 4.7 fold-induction | SRE luciferase fold-induction at 320 ng/ml (GPCR73b receptor [6]): 6.3 fold-induction | SRE luciferase fold-induction at 1000 ng/ml (GPCR73b receptor [6]): 7.1 fold-induction | SRE luciferase fold-induction at 1 ng/ml (GPCR73b receptor [7]): 1 fold-induction | SRE luciferase fold-induction at 3.2 ng/ml (GPCR73b receptor [7]): 1.2 fold-induction | SRE luciferase fold-induction at 10 ng/ml (GPCR73b receptor [7]): 1.7 fold-induction | SRE luciferase fold-induction at 32 ng/ml (GPCR73b receptor [7]): 2.6 fold-induction | SRE luciferase fold-induction at 100 ng/ml (GPCR73b receptor [7]): 4.4 fold-induction | SRE luciferase fold-induction at 320 ng/ml (GPCR73b receptor [7]): 5.2 fold-induction | SRE luciferase fold-induction at 1000 ng/ml (GPCR73b receptor [7]): 4.8 fold-induction | SRE luciferase fold-induction at 1 ng/ml (GPCR73a receptor [8]): 1.9 fold-induction | SRE luciferase fold-induction at 3.2 ng/ml (GPCR73a receptor [8]): 4 fold-induction | SRE luciferase fold-induction at 10 ng/ml (GPCR73a receptor [8]): 8.4 fold-induction | SRE luciferase fold-induction at 32 ng/ml (GPCR73a receptor [8]): 15 fold-induction | SRE luciferase fold-induction at 100 ng/ml (GPCR73a receptor [8]): 19 fold-induction | SRE luciferase fold-induction at 320 ng/ml (GPCR73a receptor [8]): 20.7 fold-induction | SRE luciferase fold-induction at 1000 ng/ml (GPCR73a receptor [8]): 17.8 fold-induction

B3: Zven1 protein produced in baculovirus with a C-terminal Glu-Glu tag (ligand)
chain: AVITGACDKDSQCGGGMCCAVSIWVKSIRICTPMGKLGDSCHPLTRKVPFFGRRMHHTCPCLPGLACLRTSFNRFICLAQKGLEYMPMD
Bmax (fmol bound/10^6 cells) [9]: 1020 | Kd [9]: 31 nM | ERK-Map kinase activity in Wky12-22 cells, EC50 [10]: 0.5 nM | SRE luciferase fold-induction at 1 ng/ml (fold-induction) [4]: 2.5 | SRE luciferase fold-induction at 3.2 ng/ml (fold-induction) [4]: 7.1 | SRE luciferase fold-induction at 10 ng/ml (fold-induction) [4]: 13.1 | SRE luciferase fold-induction at 32 ng/ml (fold-induction) [4]: 18.7 | SRE luciferase fold-induction at 100 ng/ml (fold-induction) [4]: 20.5 | Bmax (fmol bound/10^6 cells) [11]: 350 | Kd [11]: 1.5 nM

B4: Heated Zven1 (Baculovirus-expressed Zven1 heated at 56° C. for 30 minutes) (ligand)
chain: AVITGACDKDSQCGGGMCCAVSIWVKSIRICTPMGKLGDSCHPLTRKVPFFGRRMHHTCPCLPGLACLRTSFNRFICLAQKGLEYMPMD
SRE luciferase fold-induction at 1 ng/ml (fold-induction) [4]: 1.8 | SRE luciferase fold-induction at 3.2 ng/ml (fold-induction) [4]: 3.7 | SRE luciferase fold-induction at 10 ng/ml (fold-induction) [4]: 10 | SRE luciferase fold-induction at 32 ng/ml (fold-induction) [4]: 14.8 | SRE luciferase fold-induction at 100 ng/ml (fold-induction) [4]: 18.6
